# According to patent publication US20100196266A1:
# B1: murine MN-14 (anti-carcinoembryonic antigen) (antibody, from a related filing, V domains shown)
# VH: EVKLLESGGGLVQSGGSLKLSCAASGFDFTTYWMSWVRQAPGKGLEWIGEIHPDSSTINYAPSLKDKFIVSRDNAKNTLYLQMSKVRSEDTALYYCASLYFGFPWFAYWGQGTPVTVSA
# VL: EIQLTQSHKMMSTSVGDRVSITCKASQDVGTSVAWYQQRPGQSPKLLIYWTSTRHTGVPDRFTGSVSGTDFTLTITNVQSEDLADYFCQQYSLYRSFGGGTKLEIK
# B2: hL243γ4P (humanized L243, IgG4/K isotype with hinge mutation Ser241Pro) (antibody, V domains shown)
# VH: QVQLQQSGSELKKPGASVKVSCKASGFTFTNYGMNWVKQAPGQGLKWMGWINTYTREPTYADDFKGRFAFSLDTSVSTAYLQISSLKADDTAVYFCARDITAVVPTGFDYWGQGSLVTVSS
# VL: DIQLTQSPSSLSASVGDRVTITCRASENIYSNLAWYRQKPGKAPKLLVFAASNLADGVPSRFSGSGSGTDYTFTISSLQPEDIATYYCQHFWTTPWAFGGGTKLQIKR
# B3: hMN-14, labetuzumab (humanized anti-carcinoembryonic antigen IgG1) (antibody, INN chains, looked up, V domains shown)
# VH: EVQLVESGGGVVQPGRSLRLSCSASGFDFTTYWMSWVRQAPGKGLEWIGEIHPDSSTINYAPSLKDRFTISRDNAKNTLFLQMDSLRPEDTGVYFCASLYFGFPWFAYWGQGTPVTVSS
# VL: DIQLTQSPSSLSASVGDRVTITCKASQDVGTSVAWYQQKPGKAPKLLIYWTSTRHTGVPSRFSGSGSGTDFTFTISSLQPEDIATYYCQQYSLYRSFGQGTKVEIKR
# B4: murine monoclonal antibody L243 (mL243) (antibody, V domains shown)
# VH: QIQLVQSGPELKKPGETVKISCKASGFTFTNYGMNWVKQAPGKGLKWMGWINTYTREPTYADDFKGRFAFSLETSASTAYLQINNLKNEDTAKYFCARDITAVVPTGFDYWGQGTTLTVSS
# VL: DIQMTQSPASLSVSVGETVTITCRASENIYSNLAWYRQKQGKSPQLLVFAASNLADGVPSRFSGSGSGTQYSLKINSLQSEDFGDYYCQHFWTTPWAFGGGTNLEIKR
# Legend:
# [1] = molecular target: human leukocyte antigen-DR (HLA-DR) on human lymphoma and leukemia cell lines and human lymphocytes (human); test: indirect flow cytometry, Namalwa cells, FITC-GAM; none 2.91; control antibody
# [2] = molecular target: antigen recognised by L243 on canine lymphocytes and canine lymphoma cells (HLA-DR of the dog) (dog); test: flow cytometry, canine lymphoma aspirate 150836; none 3.2
# [3] = molecular target: antigen recognised by L243 on canine lymphocytes and canine lymphoma cells (HLA-DR of the dog) (dog); test: flow cytometry, dog lymphoma aspirate; none 4.48
# [4] = molecular target: antigen recognised by L243 on canine lymphocytes and canine lymphoma cells (HLA-DR of the dog) (dog); test: flow cytometry, dog lymphoma aspirate; none 3.24
# [5] = molecular target: antigen recognised by L243 on canine lymphocytes and canine lymphoma cells (HLA-DR of the dog) (dog); test: flow cytometry, canine lymphoma aspirate 150836; none 4.5
# [6] = molecular target: human leukocyte antigen-DR (HLA-DR) on human lymphoma and leukemia cell lines and human lymphocytes (human); test: indirect flow cytometry, FITC-GAH Fc, Daudi cells; none 3.2; negative control
# [7] = molecular target: human leukocyte antigen-DR (HLA-DR) on human lymphoma and leukemia cell lines and human lymphocytes (human); test: indirect FACS, FITC-GAH Fc, Ramos cells; none 3.1; control antibody
# [8] = molecular target: antigen recognised by L243 on canine lymphocytes and canine lymphoma cells (HLA-DR of the dog) (dog); test: flow cytometry, canine lymphoma aspirate 150836; none 3.2; control antibody
# [9] = molecular target: antigen recognised by L243 on canine lymphocytes and canine lymphoma cells (HLA-DR of the dog) (dog); test: flow cytometry, dog lymphoma aspirate; none 3.24; control antibody
# [10] = molecular target: human leukocyte antigen-DR (HLA-DR) on human lymphoma and leukemia cell lines and human lymphocytes (human); test: indirect flow cytometry, FITC-GAH Fc, RL cells; none 2.4; negative control
# [11] = molecular target: human leukocyte antigen-DR (HLA-DR) on human lymphoma and leukemia cell lines and human lymphocytes (human); test: indirect flow cytometry, FITC-GAH Fc, Ramos cells; none 3.1; negative control
# [12] = molecular target: human leukocyte antigen-DR (HLA-DR) on human lymphoma and leukemia cell lines and human lymphocytes (human); test: indirect FACS, FITC-GAH Fc, Raji cells; none 6.8; control antibody
# [13] = molecular target: human leukocyte antigen-DR (HLA-DR) on human lymphoma and leukemia cell lines and human lymphocytes (human); test: indirect flow cytometry, FITC-GAH Fc, Raji cells; none 6.9; negative control
# [14] = molecular target: human leukocyte antigen-DR (HLA-DR) on human lymphoma and leukemia cell lines and human lymphocytes (human); test: indirect flow cytometry, FITC-GAH Fc, Namalwa cells; none 2.6; negative control
# [15] = molecular target: human leukocyte antigen-DR (HLA-DR) on human lymphoma and leukemia cell lines and human lymphocytes (human); test: indirect flow cytometry, FITC-GAH Fc, SU-DHL-6 cells; none 4.6; negative control
# [16] = molecular target: human leukocyte antigen-DR (HLA-DR) on human lymphoma and leukemia cell lines and human lymphocytes (human); test: indirect flow cytometry, FITC-GAH Fc, WSU-FSCCL cells; none 2.7; negative control
# [17] = molecular target: human leukocyte antigen-DR (HLA-DR) on human lymphoma and leukemia cell lines and human lymphocytes (human); test: indirect FACS, FITC-GAH Fc, Namalwa cells; none 2.5; control antibody
# [18] = molecular target: antigen recognised by L243 on canine lymphocytes and canine lymphoma cells (HLA-DR of the dog) (dog); test: flow cytometry, canine lymphoma aspirate 150836; none 4.5; control antibody
# [19] = molecular target: human leukocyte antigen-DR (HLA-DR) on human lymphoma and leukemia cell lines and human lymphocytes (human); test: indirect FACS, FITC-GAH Fc, Daudi cells; none 3.1; control antibody
# [20] = molecular target: human leukocyte antigen-DR (HLA-DR) on human lymphoma and leukemia cell lines and human lymphocytes (human); test: indirect FACS, FITC-GAH Fc, WSU-FSCCL cells; none 2.6; control antibody
# [21] = molecular target: human leukocyte antigen-DR (HLA-DR) on human lymphoma and leukemia cell lines and human lymphocytes (human); test: indirect FACS, FITC-GAH Fc, SU-DHL-6 cells; none 4.6; control antibody
# [22] = molecular target: human leukocyte antigen-DR (HLA-DR) on human lymphoma and leukemia cell lines and human lymphocytes (human); test: indirect flow cytometry, Namalwa cells, FITC-GAH; none 2.52; control antibody
# [23] = molecular target: antigen recognised by L243 on canine lymphocytes and canine lymphoma cells (HLA-DR of the dog) (dog); test: flow cytometry, dog lymphoma aspirate; none 4.48; control antibody
# [24] = molecular target: antigen recognised by L243 on canine lymphocytes and canine lymphoma cells (HLA-DR of the dog) (dog); test: flow cytometry, dog lymphoma aspirate; none 3.85
# [25] = molecular target: antigen recognised by L243 on canine lymphocytes and canine lymphoma cells (HLA-DR of the dog) (dog); test: flow cytometry, canine lymphoma aspirate 150836; none 3.4
# [26] = molecular target: antigen recognised by L243 on canine lymphocytes and canine lymphoma cells (HLA-DR of the dog) (dog); test: flow cytometry, canine lymphoma aspirate 150836; none 3.9
# [27] = molecular target: antigen recognised by L243 on canine lymphocytes and canine lymphoma cells (HLA-DR of the dog) (dog); test: flow cytometry, dog lymphoma aspirate; none 3.37
binder,measurement,setting,value
B1,GEO MEAN Fluorescence,[1],3.32
B2,mean FL,[2],5.5
same,% Positive,[3],26.3%
same,mean FL,[4],5.47
same,% Positive,[5],26.2%
B3,Geometric Mean Fluorescence,[6],3.2
same,Geometric Mean Fluorescence,[7],3.13
same,mean FL,[8],3.2
same,mean FL,[9],3.24
same,Geometric Mean Fluorescence,[10],2.8
same,Geometric Mean Fluorescence,[11],3.1
same,Geometric Mean Fluorescence,[12],6.96
same,Geometric Mean Fluorescence,[13],7
same,Geometric Mean Fluorescence,[14],2.4
same,Geometric Mean Fluorescence,[15],4.9
same,Geometric Mean Fluorescence,[16],2.7
same,Geometric Mean Fluorescence,[17],2.36
same,% Positive,[18],4.6%
same,Geometric Mean Fluorescence,[19],3.16
same,Geometric Mean Fluorescence,[20],2.66
same,Geometric Mean Fluorescence,[21],4.94
same,GEO MEAN Fluorescence,[22],2.49
same,% Positive,[23],4.63%
B4,% Positive,[24],77.8%
same,mean FL,[25],10.4
same,% Positive,[26],77.8%
same,mean FL,[27],10.4
